Among the data in patent US20160159920A1 are EC50, AlamarBlue proliferation of Baf3 stable cells overexpressing LepR values, retold here.

The assay addresses human Leptin receptor (LepR) (human) (UniProt P48357). Description: cell-based or functional assay.

Several values for one entry are separate records, joined by “and”; a condition that tells them apart may be missing. Equal values may be shown once.

Sequence of human Leptin receptor (LepR) (human) (P48357 22-1165): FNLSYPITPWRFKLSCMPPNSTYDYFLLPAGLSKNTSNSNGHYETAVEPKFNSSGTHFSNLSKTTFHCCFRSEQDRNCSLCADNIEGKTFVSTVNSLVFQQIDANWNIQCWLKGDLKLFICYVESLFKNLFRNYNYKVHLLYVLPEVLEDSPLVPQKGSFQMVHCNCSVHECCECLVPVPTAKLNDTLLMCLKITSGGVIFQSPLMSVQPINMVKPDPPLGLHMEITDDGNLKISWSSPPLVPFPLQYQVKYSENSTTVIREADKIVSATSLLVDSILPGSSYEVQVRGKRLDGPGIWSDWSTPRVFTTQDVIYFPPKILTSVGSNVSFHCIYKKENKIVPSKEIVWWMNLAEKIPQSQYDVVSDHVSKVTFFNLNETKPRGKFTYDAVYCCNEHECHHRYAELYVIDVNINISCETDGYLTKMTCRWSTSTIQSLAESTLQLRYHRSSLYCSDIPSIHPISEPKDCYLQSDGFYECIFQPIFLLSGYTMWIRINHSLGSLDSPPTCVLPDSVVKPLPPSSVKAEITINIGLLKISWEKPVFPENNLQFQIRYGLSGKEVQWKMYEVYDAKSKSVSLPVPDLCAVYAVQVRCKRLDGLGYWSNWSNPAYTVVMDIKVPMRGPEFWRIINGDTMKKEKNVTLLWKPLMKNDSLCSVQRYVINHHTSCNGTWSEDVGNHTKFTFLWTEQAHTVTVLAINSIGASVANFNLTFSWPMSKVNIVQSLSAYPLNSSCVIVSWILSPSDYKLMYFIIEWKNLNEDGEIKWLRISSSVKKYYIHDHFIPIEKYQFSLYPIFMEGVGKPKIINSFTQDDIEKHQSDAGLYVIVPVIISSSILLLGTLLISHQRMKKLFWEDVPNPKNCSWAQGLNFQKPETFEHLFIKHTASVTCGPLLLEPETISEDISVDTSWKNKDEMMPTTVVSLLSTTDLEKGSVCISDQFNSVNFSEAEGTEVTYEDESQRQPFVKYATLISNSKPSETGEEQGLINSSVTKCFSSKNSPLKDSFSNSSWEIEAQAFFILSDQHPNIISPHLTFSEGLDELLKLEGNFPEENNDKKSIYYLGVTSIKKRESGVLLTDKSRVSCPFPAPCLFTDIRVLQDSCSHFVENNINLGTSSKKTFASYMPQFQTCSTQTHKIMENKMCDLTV

With “hLeptin (SEQ ID NO: 238) (from UniProt P41159 22-167) (ligand)”, the EC50, AlamarBlue proliferation of Baf3 stable cells overexpressing LepR is 129 ρM and 58.2 ρM.
